We go through 18 sequences from the DeepSol protein solubility set.

The nature of the data set: soluble on expression in E. coli; label from the status in PepcDB or PDB records.
As for “MGHHHHHHSHMKKEHVLHCQFSAWYPFFRGVTIKSVILPLPQNVKDYLLDDGTLVVSGRDDPPTHSQPDSDDEAEEIQWSDDENTATLTAPEFPEFATKVQEPINSLGGSVFPKLNWSAPRDAYWIAMNSSLKCKTLSDIFLLFKSSDFITRDFTQPFIHCTDDSPDPCIEYELVLRKWCELIPGAEFRCFVKENKLIGISQRDYTQYYDHISKQKEEIRRCIQDFFKKHIQYKFLDEDFVFDIYRDSRGKVWLIDFNPFGEVTDSLLFTWEELISENNLNGDFSEVDAQEQDSPAFRCTNSEVTVQPSPYLSYRLPKDFVDLSTGRDAHKLIDFLKLKRNQQEDD”, the “soluble on expression in E. coli” value is “not soluble”. As for “MKIGVFDSGVGGFSVLKSLLKARLFDEIIYYGDSARVPYGTKDPTTIKQFGLEALDFFKPHEIELLIVACNTASALALEEMQKYSKIPIVGVIEPSILAIKRQVEDKNAPILVLGTKATIQSNAYDNALKQQGYLNISHLATSLFVPLIEESILEGELLETCMHYYFTPLEILPEVIILGCTHFPLIAQKIEGYFMGHFALPTPPLLIHSGDAIVEYLQQKYALKNNACTFPKVEFHASGDVIWLERQAKEWLKL”, the “soluble on expression in E. coli” value is given as “soluble”. In the case of “MSLIVVTGGAGFIGSHVVDKLSESNEIVVIDNLSSGNEEFVNEAARLVKADLAADDIKDYLKGAEEVWHIAANPDVRIGAENPDEIYRNNVLATYRLLEAMRKAGVSRIVFTSTSTVYGEAKVIPTPEDYPTHPISLYGASKLACEALIESYCHTFDMQAWIYRFANVIGRRSTHGVIYDFIMKLKRNPEELEILGNGEQNKSYIYISDCVDAMLFGLRGDERVNIFNIGSEDQIKVKRIAEIVCEELGLSPRFRFTGGDRGWKGDVPVMLLSIEKLKRLGWKPRYNSEEAVRMAVRDLVEDLDEEGHHHHHH”, the “soluble on expression in E. coli” value is recorded as “soluble”.

For the sequence “MGSDKIHHHHHHMTPDSSPSSVDDPLFESGHRIFANKDLLKIGHVPEADRIVGRDEEISKLAKRLNGAVHGYSPENVMIYGKTGTGKSLVSKHVCQRAQNAAQDGVEIGTAYIDCAEDNTETQAISSLAAKLNDESSTGISVPHTGLSTSKYYKLLWKTLDAQFDSVIIILDEIDLMNDDSVLMKLSRAEEAGKIDCSVGVIAISNKIQYVDNVNERVKSSFQHKELFFKPYDANQLREIMFNREDAFQDGVLSEDVIPLSAAFAAQEHGDARKAIDILRHAGEVAYEAGAELVTEEHVRQAQQHAEKDRFRELVNGAPTQAKAALLALTELSVNSNDDAFLTSRVYDQYEHICNHLDMDILSVRRFRDILKEQAFLGVVEIEKINKGSAGGIHLQNRLIEDSQVVRETILEDSRMQDWTRE”, the “soluble on expression in E. coli” value is recorded as “not soluble”. As to “YTIEELVKQADQQFNGNIAELMIATEVEMSGRNREDIIKIMSRNLQVMKAAVTEGLTSTKSISGLTGGDAVKMDNYIKKGNSLSDTTILNAVRNAIAVNELNAKMGLVCATPTAGSAGCLPAVLATAIEKLDLSEKEQLEFLFTAGAFGLVIGNNASISGAEGGCQAE”, the “soluble on expression in E. coli” value was “not soluble”. Next, “MTECIFCHQLKANQLLTQSQYFKVVFDIDPIQKGHLLLISKDHYTSLTQLPKEGHYDLIDLQAALVAKLEQHLPISGVTSVSNDKELMDEGTHFHLHLIPRLTNDSFWEGITINQENWDLTPFLKHL”: “not soluble”; “MDVTQLKMLRNAKVVSEIKKGFSIDKKYQVDETYLVRVFPKELLQTRKQEFEIIQALGSQTPFVPRAYDFGCTGGEGYMIIGYVRGEDAENGMFRLSHSEQFKAGFSAGEILREVHKIPLDIPKMNWLDFQTAKFKRKVEELKELEITASFLTETEQFVYENIARLKNRPVCLQHGDFHPANIILKNKKFAGLIDFNRLEFGDPLFDLAKIGFFTTEVSIPFARGNILGYIDKEEVTDFWNLYALYTAMHITSAVNWAAKNESRNFNKLMNYAAKTAASHDNFQKLMPDWMNKEEFK”: “not soluble”. Consider “METFILSSDSDDDSGPPPSKRRTIEGIPRSFSGDKKIRFSFGASNMSQDTTQEIIPEDTDTVPLTIPSTPALSGKFDSKTPKSVRRRSVSMSCFTPIVETINQPPTNQACSSFLQKEYNFHDLSSDEEGGDGGAGCSKDEDKIIEDNLNLRALLSPEKKKRKEKIEEVQNEFYGVYCLISRSDRPCYKNRCYIGYTVDPNRRIMQHNGGRDKGGAKKTDSRGPWDMVCVVHGFPNHVAALHFEWAWQNPLVSKSLKEKQLRKERKETPFAFQLRIACELMNSSAFCRFALTFRWLITTEELPFPTSCVPPDHTKLRFGKVKKEMSLVPSKREDYLEMGECRICGKDIEKLWSLVRCISATCPSHFHSKCLSENGLKLKNEHVDHVYPLKANCPTCGQFYLWGDIIREQRRIIKISTKCAEEFQNMVVRKELPHREISPISSKK”, for which the “soluble on expression in E. coli” value is “not soluble”. Turning to “MLDTAAIIISQGKKIAYAYAEGVNDNMTQSHFHDFFELYYLLEGERMHMIEGEIYHLTANDFVLFPPHIMHHSYGEKDMPFKRIVLYFSPDLIANDTICQLLSEKELLFVNEGYIPNQILSLLLSLTHEIDVPGKYHDAYICNQLNGLLLNMLRLDFEAVKSIPKTRSAKAVDYIHNHYMEDISVNQLAEILYVSPYHLCHEFKNATGKTIIQYLNTTRILHAQRLMLETDYNITQISREVGFSNLTHFNRTFKKITGVAPREKKKLYQK”, the “soluble on expression in E. coli” value is recorded as “not soluble”.

For “MPKNTKKSQGNKKLEMTNKQFDDLLKEMGGLPEGMNLDPELLAVLRQATNAEFNKVAKEKYGDVPEGSDDDEEQQTSEQNKEQQQSSSSKST”, the “soluble on expression in E. coli” value is “not soluble”. As for “MSLDKKPVTTRKKVKVTGTETYINQSTGEIKEMQVIDIEERDFNFHKVWLEHIIHSMDLIGNQKTRLAFWLINNLNRDNVLIMTQRKIAEKTGISLETVRQTMKALMESGFLIKINSGAYCVNPDAVFKGGKTDRLNVLIQYRKSEQENTKTSEPTSEKDEPSLFNNEQLKAMEGHHHHHH”, the “soluble on expression in E. coli” value was “soluble”. For the sequence “GPLGSEAQSEKEEAPKPLHKVVVCVSKKLSKKQSELNGIAASLGADYRWSFDETVTHFIYQGRPNDTNREYKSVKERGVHIVSEHWLLDCAQECKHLPESLYPHTYNPK”, the “soluble on expression in E. coli” value was “soluble”. With “MNLIDYKARERGIEVEMPDERGTSSSCSVCGHEDEDSRVERGLWKCDCCGIVAHGDVNGADNIRQKTLPVTPPLGGSGNGCLAQPCVIQFSRTRGFQPRAPAELEHHHHHH”, the “soluble on expression in E. coli” value was “soluble”.

On to “AIAELTGQRLREGDGPDGPADDGAGAQADLEHSLLVAAEKKDEGPYRMEHFRWGSPPKDKRYGGFMTSEKSQTPLVTLFKNAIIKNAYKKGE”, for which the “soluble on expression in E. coli” value is “soluble”.

Consider “MCMMSKVVSKMKSFLGFDEFEDEDEVMEEEEVMEEEESFAPVLSSKKNGKVVNIHTANTAKLMITKPLVYDDATEICTALKNRKIVVINTTSLELRTAQRLIDFVGGACYALCGELQEVEKGVFIVSPSNVEVSNELKSELSNKGMFNWASKLEHHHHHH”, for which the “soluble on expression in E. coli” value was “not soluble”. “GPGSMLANYDYESDLRGRTDELGRAQHVDAYDKHPTFLESPYAGQEDLLRDAPQSYMDGPPPGYGGHDAYEHVDMNGGGYDLPLQPQAQTQAVDTRRLSKDRLARGGLNIFSWNTDAPTLNHPREVRERDCAELQRLRPVDSAAQRDKEVREKFEGNTQSRFLCFSESDSPGKRRGVRVFNPNNKNGNLNSGTGHENPIQNRFNEEPQPFKIRQQQPRPLPQQNLPPAGRATHSNRQESGGIPGFAGMGEGRQHNARRGRGSYRG”: the “soluble on expression in E. coli” value is “not soluble”. Next, “MGSDKIHHHHHHMNKQEITSKIKEITETGAVCGVDVYVCLKGEEQGFYIEKMISMNSLKDRIRSIALEIINTQYLQDEVVYCDILDVIDNKKAVYVLEQSDEYKPFALLNDDSMDEVFNFDEKDIGNVLGFLFKINLNSKKLFIYQQAYVGSRLQAKNNLRIIQKDNVFEIVDKEMLKIDKRGELLILDNTILVRNVKVLQDFFGFQVFVRNQAQSVISKLEELDIIGNIATLKEYQTGEKLTISKKLMKVKNSPVLAMDKDELINKIPLVPRYKNIIHIENGKIRTNTKKDVDNLMKLLNDDYVKSELTDMEYDSTSKTLLNSESQDE”: “not soluble”; “MVLEHCRDAIESHGVETDIISLRGMKIESCRACLSCAKKHRCRIDDGLNDIIDRIRDSEGFIVATPVYFGTARGDLMAALQRIGMVSRASDGFLSWKVGGPIAVARRGGHTATIQELLMFYFINDMIVPGSTYWNMVFGWAPGEVEDDSEGIETIRRFGENVAELIKRINGGSLEHHHHHH”: “not soluble”.
